The text below walks through data of US20240209086A1 (PETMEDIX, published 2024).

Experiment [1] concerns the target canine CD3 on canine T cells (canine PBMC) (canine, UniProt P27597 22-202). The experiment can be described thus: cell-based or functional assay.
The target in experiment [2] is T1, canine CD3εδ-Fc (heterodimer of canine CD3ε-hIgG4PE-knob and canine CD3δ-hIgG4PE-hole) (canine).
T1 construct: also called CD3εδ-Fc fusion protein; copies: 1 + 1
As to the kind of experiment: SPR (Biacore 8K), CD3εδ-Fc amine-coupled to CM5 chip, multi-cycle kinetics, antibody 600-7.4 nM. The method, then:
Binding affinity of shortlisted candidates, described in Example 3, were assessed using Biacore 8K (Cytiva). Briefly, a CM5 Sensor Chip (Cytiva) was docked onto a Biacore 8K, equilibrated for 30′ at RT and then Running Buffer (10 mM HEPES pH6 150 mM NaCl 3 mM EDTA and 0.005% Tween20) was applied to the SPR chip surface. Canine CD3εδ-Fc was diluted into 10 mM acetate buffer pH4.5 and immobilised using standard amine coupling reaction. Antibodies dilutions were prepared by diluting the shortlisted candidates from 600 nM to 7.4 nM (5 concentrations with 1:3 dilutions) in running buffer and kinetics was assessed using multi-cycle kinetics method (120 sec association-300 sec dissociation). Kinetics and/or Affinity quantification was performed using Biacore Insight following standard analyses methods.
In general terms: SPR reads the build-up and loss of mass on a sensor chip optically.

T1 sequence (chain, as listed by the source mutant limits assumed): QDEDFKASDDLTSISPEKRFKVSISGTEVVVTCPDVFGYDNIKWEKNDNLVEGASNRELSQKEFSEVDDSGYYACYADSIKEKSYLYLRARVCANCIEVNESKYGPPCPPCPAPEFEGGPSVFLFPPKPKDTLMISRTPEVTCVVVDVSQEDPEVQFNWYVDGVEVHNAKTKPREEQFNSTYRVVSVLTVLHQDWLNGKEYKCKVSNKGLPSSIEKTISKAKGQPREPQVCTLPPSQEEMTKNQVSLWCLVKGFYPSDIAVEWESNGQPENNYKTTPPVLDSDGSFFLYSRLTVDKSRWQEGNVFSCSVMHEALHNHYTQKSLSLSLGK
canine CD3 on canine T cells (canine PBMC), sequence (P27597 22-202 limits assumed, chain 1 of 3): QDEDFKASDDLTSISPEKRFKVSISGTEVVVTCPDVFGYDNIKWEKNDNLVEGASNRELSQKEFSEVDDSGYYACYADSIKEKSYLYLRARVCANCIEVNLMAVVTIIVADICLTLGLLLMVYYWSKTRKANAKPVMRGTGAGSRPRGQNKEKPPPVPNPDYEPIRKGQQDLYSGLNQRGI
canine CD3 on canine T cells (canine PBMC), sequence (chain, as listed by the source limits assumed, chain 2 of 3): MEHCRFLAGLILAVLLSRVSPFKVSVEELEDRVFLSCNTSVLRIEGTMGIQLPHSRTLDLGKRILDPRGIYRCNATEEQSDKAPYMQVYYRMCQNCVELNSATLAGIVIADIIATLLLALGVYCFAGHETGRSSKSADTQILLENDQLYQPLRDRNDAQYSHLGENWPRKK
canine CD3 on canine T cells (canine PBMC), sequence (chain, as listed by the source limits assumed, chain 3 of 3): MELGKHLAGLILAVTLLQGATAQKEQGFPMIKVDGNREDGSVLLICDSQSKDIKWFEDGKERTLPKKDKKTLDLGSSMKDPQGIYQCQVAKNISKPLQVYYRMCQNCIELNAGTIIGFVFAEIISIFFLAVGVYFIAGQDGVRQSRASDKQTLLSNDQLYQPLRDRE

B1: PMX171 in bispecific format (canine CD3 arm PMX171 x Rituximab arm, human IgG4PE knob-in-hole) (bispecific antibody)
heavy 1: EVQLVESGGDLVKPGGSLRLSCEASGFTFSSYHMSWVRQAPGKGLQWVAYINNGGSGTSYADAVKGRFTISRDNAKNTLYLQMNSLRAEDTAVYFCASEGGGKRYGYKDYGMDYWGHGTSLFVSSASTKGPSVFPLAPCSRSTSESTAALGCLVKDYFPEPVTVSWNSGALTSGVHTFPAVLQSSGLYSLSSVVTVPSSSLGTKTYTCNVDHKPSNTKVDKRVESKYGPPCPPCPAPEFEGGPSVFLFPPKPKDTLMISRTPEVTCVVVDVSQEDPEVQFNWYVDGVEVHNAKTKPREEQFNSTYRVVSVLTVLHQDWLNGKEYKCKVSNKGLPSSIEKTISKAKGQPREPQVYTLPPSQCEMTKNQVSLSCAVKGFYPSDIAVEWESNGQPENNYKTTPPVLDSDGSFFLVSRLTVDKSRWQEGNVFSCSVMHEALHNRFTQKSLSLSLGK
light 1: SYVLTQLPSKNVTLKQPAHITCGGDNIGSKSVHWYQQKLGQAPVLIIYYDSSRPTGIPERFSGANSGNTATLTISGALAEDEADYYCQVWDSSAKAWVFGEGTQLTVLRTVAAPSVFIFPPSDEQLKSGTASVVCLLNNFYPREAKVQWKVDNALQSGNSQESVTEQDSKDSTYSLSSTLTLSKADYEKHKVYACEVTHQGLSSPVTKSFNRGEC
heavy 2: not shown
light 2: QIVLSQSPAILSASPGEKVTMTCRASSSVSYIHWFQQKPGSSPKPWIYATSNLASGVPVRFSGSGSGTSYSLTISRVEAEDAATYYCQQWTSNPPTFGGGTKLEIKRTVAAPSVFIFPPSDEQLKSGTASVVCLLNNFYPREAKVQWKVDNALQSGNSQESVTEQDSKDSTYSLSSTLTLSKADYEKHKVYACEVTHQGLSSPVTKSFNRGEC
For the molecule B1, the “EC50 (M) of killing potency, bispecific killing of hCD20+GFP MDCK II cells by canine PBMC” value (“EC50 (M) of killing potency” below) in experiment [1] is 8.52e-09 M. In addition, the Kd in experiment [2] was found to be 517 nM.

B2: PMX189 in bispecific format (canine CD3 arm PMX189 x Rituximab arm, human IgG4PE knob-in-hole) (bispecific antibody)
heavy 1: ELTLQESGPGLVKPSQTLSLTCVVSGGSVTNNYYWNWIRQRPGRGLEWMGYWTGSTKYNPAFQGRISITADTANNQFSLHLNSMSSEDTAVYYCARDRDRRVPHAYGYWGQGTLVTVSSASTKGPSVFPLAPCSRSTSESTAALGCLVKDYFPEPVTVSWNSGALTSGVHTFPAVLQSSGLYSLSSVVTVPSSSLGTKTYTCNVDHKPSNTKVDKRVESKYGPPCPPCPAPEFEGGPSVFLFPPKPKDTLMISRTPEVTCVVVDVSQEDPEVQFNWYVDGVEVHNAKTKPREEQFNSTYRVVSVLTVLHQDWLNGKEYKCKVSNKGLPSSIEKTISKAKGQPREPQVYTLPPSQCEMTKNQVSLSCAVKGFYPSDIAVEWESNGQPENNYKTTPPVLDSDGSFFLVSRLTVDKSRWQEGNVFSCSVMHEALHNRFTQKSLSLSLGK
light 1: SYVLTQLPSKNVTLKQPAHITCGGDNIGSKSVHWYQQKLGQAPVLIIYYDSSRPTGIPERFSGANSGNTATLTISGALAEDEADYYCQVWDSSAKASVFGGGTHLTVLRTVAAPSVFIFPPSDEQLKSGTASVVCLLNNFYPREAKVQWKVDNALQSGNSQESVTEQDSKDSTYSLSSTLTLSKADYEKHKVYACEVTHQGLSSPVTKSFNRGEC
heavy 2: not shown
light 2: QIVLSQSPAILSASPGEKVTMTCRASSSVSYIHWFQQKPGSSPKPWIYATSNLASGVPVRFSGSGSGTSYSLTISRVEAEDAATYYCQQWTSNPPTFGGGTKLEIKRTVAAPSVFIFPPSDEQLKSGTASVVCLLNNFYPREAKVQWKVDNALQSGNSQESVTEQDSKDSTYSLSSTLTLSKADYEKHKVYACEVTHQGLSSPVTKSFNRGEC
Regarding B2, the “EC50 (M) of killing potency” value in experiment [1] was 1.1e-08 M. The Kd in experiment [2] turned out to be 177 nM.

B3: PMX191 in bispecific format (canine CD3 arm PMX191 x Rituximab arm, human IgG4PE knob-in-hole) (bispecific antibody)
heavy 1: EVQLVESGGDLVKPAGSLRLSCVASGFTFSDYSMSWVRQGPEKGLQLVAGMNSDGSTTYYTDAVRGRFTISRDNAKNTMYLQMNSLRDEDTAIYYCAKGAAAPDYWGQGTLVTVSSASTKGPSVFPLAPCSRSTSESTAALGCLVKDYFPEPVTVSWNSGALTSGVHTFPAVLQSSGLYSLSSVVTVPSSSLGTKTYTCNVDHKPSNTKVDKRVESKYGPPCPPCPAPEFEGGPSVFLFPPKPKDTLMISRTPEVTCVVVDVSQEDPEVQFNWYVDGVEVHNAKTKPREEQFNSTYRVVSVLTVLHQDWLNGKEYKCKVSNKGLPSSIEKTISKAKGQPREPQVYTLPPSQCEMTKNQVSLSCAVKGFYPSDIAVEWESNGQPENNYKTTPPVLDSDGSFFLVSRLTVDKSRWQEGNVFSCSVMHEALHNRFTQKSLSLSLGK
light 1: SYELTQPPSVNVTLRETAHITCGGDRIGSKYVQWIQQIPGQAPVVIIYKDNNRPTGIPERFSGANSGNTATLTISGALAEDEADYYCQVGDNYTWVFGEGTQLTVLRTVAAPSVFIFPPSDEQLKSGTASVVCLLNNFYPREAKVQWKVDNALQSGNSQESVTEQDSKDSTYSLSSTLTLSKADYEKHKVYACEVTHQGLSSPVTKSFNRGEC
heavy 2: not shown
light 2: QIVLSQSPAILSASPGEKVTMTCRASSSVSYIHWFQQKPGSSPKPWIYATSNLASGVPVRFSGSGSGTSYSLTISRVEAEDAATYYCQQWTSNPPTFGGGTKLEIKRTVAAPSVFIFPPSDEQLKSGTASVVCLLNNFYPREAKVQWKVDNALQSGNSQESVTEQDSKDSTYSLSSTLTLSKADYEKHKVYACEVTHQGLSSPVTKSFNRGEC
Take B3: the “EC50 (M) of killing potency” value in experiment [1] was 9.44e-09 M. For the same molecule, in experiment [2], the Kd worked out at 62.1 nM.

B4: PMX192 in bispecific format (canine CD3 arm PMX192 x Rituximab arm, human IgG4PE knob-in-hole) (bispecific antibody)
heavy 1: EVQLVESGGDLVKPAGSLRLSCVASGFTFSDYSMSWVRQAPEKGLQLVAGINGDGSTTYYTDAVKGRFTISRDNAKNTVYLQMNSLRAEDTAMYYCAKGAGTGDFWGQGTLVTVSSASTKGPSVFPLAPCSRSTSESTAALGCLVKDYFPEPVTVSWNSGALTSGVHTFPAVLQSSGLYSLSSVVTVPSSSLGTKTYTCNVDHKPSNTKVDKRVESKYGPPCPPCPAPEFEGGPSVFLFPPKPKDTLMISRTPEVTCVVVDVSQEDPEVQFNWYVDGVEVHNAKTKPREEQFNSTYRVVSVLTVLHQDWLNGKEYKCKVSNKGLPSSIEKTISKAKGQPREPQVYTLPPSQCEMTKNQVSLSCAVKGFYPSDIAVEWESNGQPENNYKTTPPVLDSDGSFFLVSRLTVDKSRWQEGNVFSCSVMHEALHNRFTQKSLSLSLGK
light 1: SYELTQPPSVNVTLRETAHITCGGASIGRKYVQWIQQIPGQAPVVIIYKDSNRPTGIPERFSGANSGNTATLTISGALAEDEADYYCQVGDSGAWVFGEGTQLTVLRTVAAPSVFIFPPSDEQLKSGTASVVCLLNNFYPREAKVQWKVDNALQSGNSQESVTEQDSKDSTYSLSSTLTLSKADYEKHKVYACEVTHQGLSSPVTKSFNRGEC
heavy 2: not shown
light 2: QIVLSQSPAILSASPGEKVTMTCRASSSVSYIHWFQQKPGSSPKPWIYATSNLASGVPVRFSGSGSGTSYSLTISRVEAEDAATYYCQQWTSNPPTFGGGTKLEIKRTVAAPSVFIFPPSDEQLKSGTASVVCLLNNFYPREAKVQWKVDNALQSGNSQESVTEQDSKDSTYSLSSTLTLSKADYEKHKVYACEVTHQGLSSPVTKSFNRGEC
For the molecule B4, the “EC50 (M) of killing potency” value in experiment [1] was 3.21e-08 M. In experiment [2], this molecule yielded a dissociation constant (Kd) of 74.4 nM.

B5: PMX190 in bispecific format (canine CD3 arm PMX190 x Rituximab arm, human IgG4PE knob-in-hole) (bispecific antibody)
heavy 1: EVQLVESGGDLVKPGGSLRLSCVASGFTFSSYQMSWVRQAPGKGLQWVAYISSGGGRTTYADAVRGRLTISRDNAKNTLYLQMNSLRAEDAAVYYCAREGGGEIYGYKDYGMDYWGHGTSLFVSSASTKGPSVFPLAPCSRSTSESTAALGCLVKDYFPEPVTVSWNSGALTSGVHTFPAVLQSSGLYSLSSVVTVPSSSLGTKTYTCNVDHKPSNTKVDKRVESKYGPPCPPCPAPEFEGGPSVFLFPPKPKDTLMISRTPEVTCVVVDVSQEDPEVQFNWYVDGVEVHNAKTKPREEQFNSTYRVVSVLTVLHQDWLNGKEYKCKVSNKGLPSSIEKTISKAKGQPREPQVYTLPPSQCEMTKNQVSLSCAVKGFYPSDIAVEWESNGQPENNYKTTPPVLDSDGSFFLVSRLTVDKSRWQEGNVFSCSVMHEALHNRFTQKSLSLSLGK
light 1: SYVLTQLPSKNVTLKQPAHITCGGDNIGSKSVHWYQQKLGQAPVLIIYYDSSRPTGIPERFSGANSGNTATLTISGALAEDEADYYCQVWDSSAKAWVFGEGTQLTVLRTVAAPSVFIFPPSDEQLKSGTASVVCLLNNFYPREAKVQWKVDNALQSGNSQESVTEQDSKDSTYSLSSTLTLSKADYEKHKVYACEVTHQGLSSPVTKSFNRGEC
heavy 2: not shown
light 2: QIVLSQSPAILSASPGEKVTMTCRASSSVSYIHWFQQKPGSSPKPWIYATSNLASGVPVRFSGSGSGTSYSLTISRVEAEDAATYYCQQWTSNPPTFGGGTKLEIKRTVAAPSVFIFPPSDEQLKSGTASVVCLLNNFYPREAKVQWKVDNALQSGNSQESVTEQDSKDSTYSLSSTLTLSKADYEKHKVYACEVTHQGLSSPVTKSFNRGEC
As for B5, the “EC50 (M) of killing potency” value in experiment [1] came to 1e-08 M. The same molecule came in with an equilibrium dissociation constant (Kd) in experiment [2] of 999 nM.

B6: PMX186 in bispecific format (canine CD3 arm PMX186 x Rituximab arm, human IgG4PE knob-in-hole) (bispecific antibody)
heavy 1: EVKLVESGGDLVKPGGSLRLSCVASGVTFSRYYMSWVRQAPGKGLQWVAYINSGGSTTSYADAVKGRFTISRDNAKNTLYLQMNSLRAEDTAVYYCASEGVGEIYGYKDFGMDYWGHGTSLFVSSASTKGPSVFPLAPCSRSTSESTAALGCLVKDYFPEPVTVSWNSGALTSGVHTFPAVLQSSGLYSLSSVVTVPSSSLGTKTYTCNVDHKPSNTKVDKRVESKYGPPCPPCPAPEFEGGPSVFLFPPKPKDTLMISRTPEVTCVVVDVSQEDPEVQFNWYVDGVEVHNAKTKPREEQFNSTYRVVSVLTVLHQDWLNGKEYKCKVSNKGLPSSIEKTISKAKGQPREPQVYTLPPSQCEMTKNQVSLSCAVKGFYPSDIAVEWESNGQPENNYKTTPPVLDSDGSFFLVSRLTVDKSRWQEGNVFSCSVMHEALHNRFTQKSLSLSLGK
light 1: SYVLTQLPSKNVTLKQPAHITCGGDNIGSKSVHWYQQKLGQAPVLIIYYDSRRPTGIPERFSGANSGNTATLTISGALAEDEADYYCQVWDSSAKAWVFGEGTQLTVLRTVAAPSVFIFPPSDEQLKSGTASVVCLLNNFYPREAKVQWKVDNALQSGNSQESVTEQDSKDSTYSLSSTLTLSKADYEKHKVYACEVTHQGLSSPVTKSFNRGEC
heavy 2: not shown
light 2: QIVLSQSPAILSASPGEKVTMTCRASSSVSYIHWFQQKPGSSPKPWIYATSNLASGVPVRFSGSGSGTSYSLTISRVEAEDAATYYCQQWTSNPPTFGGGTKLEIKRTVAAPSVFIFPPSDEQLKSGTASVVCLLNNFYPREAKVQWKVDNALQSGNSQESVTEQDSKDSTYSLSSTLTLSKADYEKHKVYACEVTHQGLSSPVTKSFNRGEC
For the molecule B6, the “EC50 (M) of killing potency” value in experiment [1] stood at 1.29e-08 M. This molecule showed a Kd in experiment [2] of 513 nM.

Usually Kd stands for the free concentration of one partner at which half of the binding sites on the other are occupied at equilibrium, for simple one-to-one binding. High values mean a looser complex, low ones a tighter complex.
